Kd data for 2 substances are collected here from article PMC7217966.

For orientation: Kd means the concentration at which binding is half-saturated.

The target of one test is CsgG (Escherichia coli) (UniProt P0AEA2). The following applies: cited from earlier work.
A further test has as its target CsgG-6xHis (E. coli) (UniProt P0AEA2). The test can be described thus: SPR; Biacore 3000, NTA sensor chip activated with NiSO4; CsgG-His (200 nM) immobilised via the His-tag; N22 peptide injected at 50 μl/min, 20 − 1 nM; 10 mM HEPES, 150 mM NaCl, 0.36 mM DDM, pH 8.0; non-activated reference flow cell; 1:1 binding model. (Surface plasmon resonance follows binding to a sensor surface in real time, without labels.)

“CsgA N6 peptide N6 (from UniProt P28307)”: the Kd in the test with CsgG (Escherichia coli) is 28.3 µM.

As for CsgA N22 peptide, the Kd in the test with CsgG-6xHis (E. coli) was 0.53 µM.
